Test results reported in IntAct's records for PubMed 31515488.

B1: WASH complex subunit 3 (Homo sapiens), Q9Y3C0 (parent)
chain: MDEDGLPLMGSGIDLTKVPAIQQKRTVAFLNQFVVHTVQFLNRFSTVCEEKLADLSLRIQQIETTLNILDAKLSSIPGLDDVTVEVSPLNVTSVTNGAHPEATSEQPQQNSTQDSGLQESEVSAENILTVAKDPRYARYLKMVQVGVPVMAIRNKMISEGLDPDLLERPDAPVPDGESEKTVEESSDSESSFSD
partner: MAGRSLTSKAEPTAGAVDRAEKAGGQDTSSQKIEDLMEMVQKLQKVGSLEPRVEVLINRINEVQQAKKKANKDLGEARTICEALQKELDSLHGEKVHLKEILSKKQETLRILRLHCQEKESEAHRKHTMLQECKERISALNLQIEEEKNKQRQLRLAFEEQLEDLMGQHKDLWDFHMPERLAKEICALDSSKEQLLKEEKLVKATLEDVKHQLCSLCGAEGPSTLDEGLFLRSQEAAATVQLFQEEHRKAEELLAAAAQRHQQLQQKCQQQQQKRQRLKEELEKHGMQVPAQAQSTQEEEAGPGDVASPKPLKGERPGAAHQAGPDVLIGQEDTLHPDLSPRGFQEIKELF
B2: Vacuolar protein sorting-associated protein 28 homolog (Homo sapiens), Q9UK41-2 (parent)
chain: MFHGIPATPGIGAPGNKPELYEEVKLYKNAREREKYDNMAELFAVVKTMQALEKAYIKDCVSPSEYTAACSRLLVQYKAAFRQVQGSEISSIDEFCRKFRLDCPLAMERIKEDRPITIKDDKGNLNRCIADVVSLFITVMDKLRLEIRAMDEIQPDLRELMETMHRMSHLPPDFEGRQTVSQWWVSLPARQSPAVPETLPARRSPAVPLRPSAPTCPVLHSQAADPERHVGVR
B3: Mothers against decapentaplegic homolog 3 (Homo sapiens), P84022 (parent)
chain: MSSILPFTPPIVKRLLGWKKGEQNGQEEKWCEKAVKSLVKKLKKTGQLDELEKAITTQNVNTKCITIPRSLDGRLQVSHRKGLPHVIYCRLWRWPDLHSHHELRAMELCEFAFNMKKDEVCVNPYHYQRVETPVLPPVLVPRHTEIPAEFPPLDDYSHSIPENTNFPAGIEPQSNIPETPPPGYLSEDGETSDHQMNHSMDAGSPNLSPNPMSPAHNNLDLQPVTYCEPAFWCSISYYELNQRVGETFHASQPSMTVDGFTDPSNSERFCLGLLSNVNRNAAVELTRRHIGRGVRLYYIGGEVFAECLSDSAIFVQSPNCNQRYGWHPATVCKIPPGCNLKIFNNQEFAALLAQSVNQGFEAVYQLTRMCTIRMSFVKGWGAEYRRQTVTSTPCWIELHLNGPLQWLDKVLTQMGSPSIRCSSVS
partner: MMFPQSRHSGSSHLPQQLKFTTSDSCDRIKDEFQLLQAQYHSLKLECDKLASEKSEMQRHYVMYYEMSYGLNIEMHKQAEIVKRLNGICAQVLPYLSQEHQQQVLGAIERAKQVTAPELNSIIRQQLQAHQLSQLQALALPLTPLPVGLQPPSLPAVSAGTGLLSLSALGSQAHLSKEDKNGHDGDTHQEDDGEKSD
B4: G-patch domain and KOW motifs-containing protein (Homo sapiens), Q92917 (parent)
chain: MADSKEGVLPLTAASTAPISFGFTRTSARRRLADSGDGAGPSPEEKDFLKTVEGRELQSVKPQEAPKELVIPLIQNGHRRQPPARPPGPSTDTGALADGVVSQAVKELIAESKKSLEERENAGVDPTLAIPMIQKGCTPSGEGADSEPRAETVPEEANYEAVPVEAYGLAMLRGMGWKPGEGIGRTFNQVVKPRVNSLRPKGLGLGANLTEAQALTPTGPSRMPRPDEEQEKDKEDQPQGLVPGGAVVVLSGPHRGLYGKVEGLDPDNVRAMVRLAVGSRVVTVSEYYLRPVSQQEFDKNTLDLRQQNGTASSRKTLWNQELYIQQDNSERKRKHLPDRQDGPAAKSEKAAPRSQHWLHRDLRVRFVDNMYKGGQYYNTKMIIEDVLSPDTCVCRTDEGRVLEGLREDMLETLVPKAEGDRVMVVLGPQTGRVGHLLSRDRARSRALVQLPRENQVVELHYDAICQYMGPSDTDDD
B5: Neurogenin-3 (Homo sapiens), Q9Y4Z2 (parent)
chain: MTPQPSGAPTVQVTRETERSFPRASEDEVTCPTSAPPSPTRTRGNCAEAEEGGCRGAPRKLRARRGGRSRPKSELALSKQRRSRRKKANDRERNRMHNLNSALDALRGVLPTFPDDAKLTKIETLRFAHNYIWALTQTLRIADHSLYALEPPAPHCGELGSPGGSPGDWGSLYSPVSQAGSLSPAASLEERPGLLGATFSACLSPGSLAFSDFL
B6: Isoform 1 of Mothers against decapentaplegic homolog 3 (Homo sapiens), P84022-1 (parent)
chain: B3 chain
B7: Tetraspanin-2 (Homo sapiens), O60636 (parent)
chain: MGRFRGGLRCIKYLLLGFNLLFWLAGSAVIAFGLWFRFGGAIKELSSEDKSPEYFYVGLYVLVGAGALMMAVGFFGCCGAMRESQCVLGSFFTCLLVIFAAEVTTGVFAFIGKGVAIRHVQTMYEEAYNDYLKDRGKGNGTLITFHSTFQCCGKESSEQVQPTCPKELLGHKNCIDEIETIISVKLQLIGIVGIGIAGLTIFGMIFSMVLCCAIRNSRDVI
partner: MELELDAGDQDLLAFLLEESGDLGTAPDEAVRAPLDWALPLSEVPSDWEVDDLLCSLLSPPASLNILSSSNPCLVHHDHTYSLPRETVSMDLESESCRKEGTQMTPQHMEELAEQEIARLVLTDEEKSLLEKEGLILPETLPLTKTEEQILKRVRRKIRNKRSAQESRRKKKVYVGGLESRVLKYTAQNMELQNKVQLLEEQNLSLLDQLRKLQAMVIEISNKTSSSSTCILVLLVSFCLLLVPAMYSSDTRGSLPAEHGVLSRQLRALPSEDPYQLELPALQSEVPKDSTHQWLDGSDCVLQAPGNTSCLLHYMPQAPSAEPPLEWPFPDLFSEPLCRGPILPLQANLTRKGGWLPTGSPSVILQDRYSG
B8: Circadian locomoter output cycles protein kaput (Homo sapiens), O15516 (parent)
chain: MLFTVSCSKMSSIVDRDDSSIFDGLVEEDDKDKAKRVSRNKSEKKRRDQFNVLIKELGSMLPGNARKMDKSTVLQKSIDFLRKHKEITAQSDASEIRQDWKPTFLSNEEFTQLMLEALDGFFLAIMTDGSIIYVSESVTSLLEHLPSDLVDQSIFNFIPEGEHSEVYKILSTHLLESDSLTPEYLKSKNQLEFCCHMLRGTIDPKEPSTYEYVKFIGNFKSLNSVSSSAHNGFEGTIQRTHRPSYEDRVCFVATVRLATPQFIKEMCTVEEPNEEFTSRHSLEWKFLFLDHRAPPIIGYLPFEVLGTSGYDYYHVDDLENLAKCHEHLMQYGKGKSCYYRFLTKGQQWIWLQTHYYITYHQWNSRPEFIVCTHTVVSYAEVRAERRRELGIEESLPETAADKSQDSGSDNRINTVSLKEALERFDHSPTPSASSRSSRKSSHTAVSDPSSTPTKIPTDTSTPPRQHLPAHEKMVQRRSSFSSQSINSQSVGSSLTQPVMSQATNLPIPQGMSQFQFSAQLGAMQHLKDQLEQRTRMIEANIHRQQEELRKIQEQLQMVHGQGLQMFLQQSNPGLNFGSVQLSSGNSSNIQQLAPINMQGQVVPTNQIQSGMNTGHIGTTQHMIQQQTLQSTSTQSQQNVLSGHSQQTSLPSQTQSTLTAPLYNTMVISQPAAGSMVQIPSSMPQNSTQSAAVTTFTQDRQIRFSQGQQLVTKLVTAPVACGAVMVPSTMLMGQVVTAYPTFATQQQQSQTLSVTQQQQQQSSQEQQLTSVQQPSQAQLTQPPQQFLQTSRLLHGNPSTQLILSAAFPLQQSTFPQSHHQQHQSQQQQQLSRHRTDSLPDPSKVQPQ
B9: Kappa-casein (Homo sapiens), P07498 (parent)
chain: MKSFLLVVNALALTLPFLAVEVQNQKQPACHENDERPFYQKTAPYVPMYYVPNSYPYYGTNLYQRRPAIAINNPYVPRTYYANPAVVRPHAQIPQRQYLPNSHPPTVVRRPNLHPSFIAIPPKKIQDKIIIPTINTIATVEPTPAPATEPTVDSVVTPEAFSESIITSTPETTTVAVTPPTA
B10: Zinc finger protein 165 (Homo sapiens), P49910 (parent)
chain: MATEPKKAAAQNSPEDEGLLIVKIEEEEFIHGQDTCLQRSELLKQELCRQLFRQFCYQDSPGPREALSRLRELCCQWLKPEIHTKEQILELLVLEQFLTILPGDLQAWVHEHYPESGEEAVTILEDLERGTDEAVLQVQAHEHGQEIFQKKVSPPGPALNVKLQPVETKAHFDSSEPQLLWDCDNESENSRSMPKLEIFEKIESQRIISGRISGYISEASGESQDICKSAGRVKRQWEKESGESQRLSSAQDEGFGKILTHKNTVRGEIISHDGCERRLNLNSNEFTHQKSCKHGTCDQSFKWNSDFINHQIIYAGEKNHQYGKSFKSPKLAKHAAVFSGDKTHQCNECGKAFRHSSKLARHQRIHTGERCYECNECGKSFAESSDLTRHRRIHTGERPFGCKECGRAFNLNSHLIRHQRIHTREKPYECSECGKTFRVSSHLIRHFRIHTGEKPYECSECGRAFSQSSNLSQHQRIHMRENLLM

Variants of: B1
Conditions: with syce1_human SYCE1, Q8N0S2

Row | effect of a mutation on the interaction | Variant
1 | with no effect | F44L

Variants of: B2
Conditions: with ts101_human TSG101, Q99816

Row | effect of a mutation on the interaction | Variant
2 | with no effect | R203W

Variants of: B3
Conditions: with tle5_human TLE5, Q08117

Row | effect of a mutation on the interaction | Variant
3 | with no effect | I170V

Variants of: B3
Conditions: with tle5_human TLE5, Q08117
Remark: another data set of the same source

Row | effect of a mutation on the interaction | Variant
4 | disrupting interaction strength | P393L

Variants of: B4
Conditions: with tri23_human TRIM23, P36406
tri23_human TRIM23, P36406, sequence (P36406 whole entry): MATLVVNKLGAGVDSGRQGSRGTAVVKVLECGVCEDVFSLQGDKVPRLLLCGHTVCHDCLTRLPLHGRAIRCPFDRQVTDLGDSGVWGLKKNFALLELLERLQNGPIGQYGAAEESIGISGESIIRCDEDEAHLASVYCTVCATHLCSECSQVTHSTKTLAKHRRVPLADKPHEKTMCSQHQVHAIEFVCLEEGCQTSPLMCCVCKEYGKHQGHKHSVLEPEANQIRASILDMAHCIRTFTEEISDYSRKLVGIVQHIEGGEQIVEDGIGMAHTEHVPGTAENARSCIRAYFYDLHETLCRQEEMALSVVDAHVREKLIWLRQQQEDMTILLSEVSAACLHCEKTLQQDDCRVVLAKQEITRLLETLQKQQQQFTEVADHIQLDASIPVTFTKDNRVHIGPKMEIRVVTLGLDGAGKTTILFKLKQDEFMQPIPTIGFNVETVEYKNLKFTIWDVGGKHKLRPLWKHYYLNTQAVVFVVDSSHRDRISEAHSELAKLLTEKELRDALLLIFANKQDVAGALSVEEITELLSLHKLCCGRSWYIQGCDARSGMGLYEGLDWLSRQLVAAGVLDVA

Row | effect of a mutation on the interaction | Variant
5 | with no effect | V393A
6 | with no effect | A129T

Variants of: B4
Conditions: with traf2_human TRAF2, Q12933
traf2_human TRAF2, Q12933, sequence (Q12933 whole entry): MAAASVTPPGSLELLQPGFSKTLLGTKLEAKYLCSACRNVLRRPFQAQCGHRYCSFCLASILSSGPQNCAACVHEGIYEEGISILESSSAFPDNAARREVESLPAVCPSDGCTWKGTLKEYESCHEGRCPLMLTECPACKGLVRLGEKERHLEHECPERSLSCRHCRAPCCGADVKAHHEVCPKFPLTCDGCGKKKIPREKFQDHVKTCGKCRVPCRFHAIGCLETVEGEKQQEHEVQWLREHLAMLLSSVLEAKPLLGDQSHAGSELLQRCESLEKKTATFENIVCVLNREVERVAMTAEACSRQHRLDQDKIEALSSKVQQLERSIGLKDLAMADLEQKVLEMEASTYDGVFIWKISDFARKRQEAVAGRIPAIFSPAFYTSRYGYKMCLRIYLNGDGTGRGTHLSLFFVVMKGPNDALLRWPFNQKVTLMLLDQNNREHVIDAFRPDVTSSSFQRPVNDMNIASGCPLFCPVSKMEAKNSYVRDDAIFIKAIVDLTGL

Row | effect of a mutation on the interaction | Variant
7 | with no effect | V393A
8 | with no effect | A129T

Variants of: B5
Conditions: with htf4_human TCF12, Q99081

Row | effect of a mutation on the interaction | Variant
9 | with no effect | F199S

Variants of: B6
Conditions: with smad4_human SMAD4, Q13485
smad4_human SMAD4, Q13485, sequence (Q13485 whole entry): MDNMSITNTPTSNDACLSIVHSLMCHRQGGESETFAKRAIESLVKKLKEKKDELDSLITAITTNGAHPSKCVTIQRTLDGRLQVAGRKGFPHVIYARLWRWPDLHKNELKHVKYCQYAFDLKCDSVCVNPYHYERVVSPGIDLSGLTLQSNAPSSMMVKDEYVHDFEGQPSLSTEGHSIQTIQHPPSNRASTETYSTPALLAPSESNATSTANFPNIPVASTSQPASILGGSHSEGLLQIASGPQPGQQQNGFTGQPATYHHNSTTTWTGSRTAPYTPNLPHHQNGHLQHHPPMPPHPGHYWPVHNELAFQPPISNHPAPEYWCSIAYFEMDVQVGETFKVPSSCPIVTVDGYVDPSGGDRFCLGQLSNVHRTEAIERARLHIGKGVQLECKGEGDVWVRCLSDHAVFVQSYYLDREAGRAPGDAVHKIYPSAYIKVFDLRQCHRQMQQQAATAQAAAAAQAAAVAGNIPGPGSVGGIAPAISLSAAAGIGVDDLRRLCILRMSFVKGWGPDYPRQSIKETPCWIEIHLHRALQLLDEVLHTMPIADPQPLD

Row | effect of a mutation on the interaction | Variant
10 | with no effect | P393L

Variants of: B6
Conditions: with smad4_human SMAD4, Q13485
Remark: another data set of the same source

Row | effect of a mutation on the interaction | Variant
11 | with no effect | I170V

Variants of: B6
Conditions: with ccd33_human CCDC33, Q8N5R6

Row | effect of a mutation on the interaction | Variant
12 | with no effect | I170V

Variants of: B7
Conditions: with creb3_human CREB3, O43889

Row | effect of a mutation on the interaction | Variant
13 | with no effect | R118L

Variants of: B8
Conditions: with bmal1_human BMAL1, O00327
bmal1_human BMAL1, O00327, sequence (O00327 whole entry): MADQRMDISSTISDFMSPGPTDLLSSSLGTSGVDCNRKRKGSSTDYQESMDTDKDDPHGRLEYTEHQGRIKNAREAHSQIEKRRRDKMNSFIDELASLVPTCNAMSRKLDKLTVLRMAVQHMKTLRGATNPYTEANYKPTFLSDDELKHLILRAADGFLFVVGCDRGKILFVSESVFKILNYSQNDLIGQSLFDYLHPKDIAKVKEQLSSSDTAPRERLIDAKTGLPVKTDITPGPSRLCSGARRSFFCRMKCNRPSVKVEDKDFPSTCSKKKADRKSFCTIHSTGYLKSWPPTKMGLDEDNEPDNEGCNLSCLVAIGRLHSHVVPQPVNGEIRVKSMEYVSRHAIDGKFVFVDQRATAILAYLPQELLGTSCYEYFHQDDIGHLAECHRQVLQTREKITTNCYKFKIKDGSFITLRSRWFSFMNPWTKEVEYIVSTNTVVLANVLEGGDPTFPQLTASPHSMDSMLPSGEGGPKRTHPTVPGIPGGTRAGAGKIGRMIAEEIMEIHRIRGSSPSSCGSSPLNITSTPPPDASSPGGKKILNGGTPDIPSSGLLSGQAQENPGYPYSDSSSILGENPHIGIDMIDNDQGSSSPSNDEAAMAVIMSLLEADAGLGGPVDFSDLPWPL

Row | effect of a mutation on the interaction | Variant
14 | with no effect | G235E
15 | with no effect | L395I

Variants of: B9
Conditions: with rbpms_human RBPMS

Row | effect of a mutation on the interaction | Variant
16 | with no effect | R96L

Variants of: B9
Conditions: with dmrtb_human DMRTB1, Q96MA1
dmrtb_human DMRTB1, Q96MA1, sequence (Q96MA1 whole entry): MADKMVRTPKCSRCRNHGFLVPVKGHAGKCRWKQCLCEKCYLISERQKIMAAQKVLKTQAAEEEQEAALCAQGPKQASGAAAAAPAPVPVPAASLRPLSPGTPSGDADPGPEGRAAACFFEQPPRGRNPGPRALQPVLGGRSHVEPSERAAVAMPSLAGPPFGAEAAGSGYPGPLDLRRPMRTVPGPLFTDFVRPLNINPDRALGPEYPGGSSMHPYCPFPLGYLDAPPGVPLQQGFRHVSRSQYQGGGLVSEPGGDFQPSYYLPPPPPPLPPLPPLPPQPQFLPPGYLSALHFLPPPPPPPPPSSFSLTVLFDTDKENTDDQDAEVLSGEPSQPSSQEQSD

Row | effect of a mutation on the interaction | Variant
17 | with no effect | R96L
18 | with no effect | A145T

Variants of: B10
Conditions: with kat7_human KAT7, O95251
kat7_human KAT7, O95251, sequence (O95251 whole entry): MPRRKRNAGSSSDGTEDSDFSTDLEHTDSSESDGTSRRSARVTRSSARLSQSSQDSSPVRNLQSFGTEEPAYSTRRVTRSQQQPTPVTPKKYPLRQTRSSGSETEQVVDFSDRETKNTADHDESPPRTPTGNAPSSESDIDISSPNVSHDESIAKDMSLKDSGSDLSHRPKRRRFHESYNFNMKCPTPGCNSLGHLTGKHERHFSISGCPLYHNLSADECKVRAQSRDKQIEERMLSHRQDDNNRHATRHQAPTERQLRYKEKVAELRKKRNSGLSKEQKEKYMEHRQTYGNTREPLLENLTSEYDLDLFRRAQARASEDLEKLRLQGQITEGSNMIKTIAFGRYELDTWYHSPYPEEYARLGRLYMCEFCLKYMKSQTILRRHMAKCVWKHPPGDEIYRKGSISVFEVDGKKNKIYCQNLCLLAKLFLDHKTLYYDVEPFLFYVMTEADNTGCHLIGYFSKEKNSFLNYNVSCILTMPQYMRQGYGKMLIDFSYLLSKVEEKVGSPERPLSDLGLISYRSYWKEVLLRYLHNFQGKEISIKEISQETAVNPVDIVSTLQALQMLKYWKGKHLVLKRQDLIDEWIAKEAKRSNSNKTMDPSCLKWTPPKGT

Row | effect of a mutation on the interaction | Variant
19 | with no effect | R69C
20 | with no effect | N347Y

Variants of: B10
Conditions: with pdli7_human PDLIM7, Q9NR12
pdli7_human PDLIM7, Q9NR12, sequence (Q9NR12 whole entry): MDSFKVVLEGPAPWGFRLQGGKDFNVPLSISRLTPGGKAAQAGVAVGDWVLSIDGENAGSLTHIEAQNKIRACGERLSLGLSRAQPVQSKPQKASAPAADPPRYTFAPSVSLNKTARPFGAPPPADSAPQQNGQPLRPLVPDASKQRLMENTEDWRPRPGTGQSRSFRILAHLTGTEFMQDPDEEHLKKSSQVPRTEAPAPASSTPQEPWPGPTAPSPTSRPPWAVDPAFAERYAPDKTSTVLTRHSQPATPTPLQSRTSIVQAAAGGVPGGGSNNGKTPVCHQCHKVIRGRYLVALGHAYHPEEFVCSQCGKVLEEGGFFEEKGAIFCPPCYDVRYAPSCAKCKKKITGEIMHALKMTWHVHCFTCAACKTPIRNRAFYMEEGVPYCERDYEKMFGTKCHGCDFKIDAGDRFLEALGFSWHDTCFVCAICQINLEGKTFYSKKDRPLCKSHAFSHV

Row | effect of a mutation on the interaction | Variant
21 | with no effect | R69C
22 | with no effect | N347Y

Variants of: B10
Conditions: with trim1_human MID2, Q9UJV3
trim1_human MID2, Q9UJV3, sequence (Q9UJV3 whole entry): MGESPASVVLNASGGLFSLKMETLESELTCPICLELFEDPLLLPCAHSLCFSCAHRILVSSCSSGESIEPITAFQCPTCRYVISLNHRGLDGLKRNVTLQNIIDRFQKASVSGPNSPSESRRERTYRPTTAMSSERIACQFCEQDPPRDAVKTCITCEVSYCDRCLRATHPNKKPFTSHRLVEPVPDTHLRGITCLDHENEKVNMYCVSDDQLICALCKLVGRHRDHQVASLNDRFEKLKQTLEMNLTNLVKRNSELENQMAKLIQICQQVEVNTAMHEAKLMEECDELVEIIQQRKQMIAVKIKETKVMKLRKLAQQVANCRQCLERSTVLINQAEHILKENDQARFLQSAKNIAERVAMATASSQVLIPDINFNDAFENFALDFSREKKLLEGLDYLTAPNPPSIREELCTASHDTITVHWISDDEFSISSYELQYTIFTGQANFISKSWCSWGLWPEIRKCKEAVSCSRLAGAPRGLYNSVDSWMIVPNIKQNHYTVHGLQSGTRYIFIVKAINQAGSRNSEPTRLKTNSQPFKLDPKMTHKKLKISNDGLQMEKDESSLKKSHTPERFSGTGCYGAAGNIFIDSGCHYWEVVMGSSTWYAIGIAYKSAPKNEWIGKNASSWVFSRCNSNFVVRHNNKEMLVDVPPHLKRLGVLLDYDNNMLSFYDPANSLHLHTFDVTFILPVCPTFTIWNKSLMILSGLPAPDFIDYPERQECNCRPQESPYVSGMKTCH

Row | effect of a mutation on the interaction | Variant
23 | with no effect | R69C
24 | with no effect | N347Y

Variants of: B10
Conditions: with zn446_human ZNF446, Q9NWS9
zn446_human ZNF446, Q9NWS9, sequence (Q9NWS9 whole entry): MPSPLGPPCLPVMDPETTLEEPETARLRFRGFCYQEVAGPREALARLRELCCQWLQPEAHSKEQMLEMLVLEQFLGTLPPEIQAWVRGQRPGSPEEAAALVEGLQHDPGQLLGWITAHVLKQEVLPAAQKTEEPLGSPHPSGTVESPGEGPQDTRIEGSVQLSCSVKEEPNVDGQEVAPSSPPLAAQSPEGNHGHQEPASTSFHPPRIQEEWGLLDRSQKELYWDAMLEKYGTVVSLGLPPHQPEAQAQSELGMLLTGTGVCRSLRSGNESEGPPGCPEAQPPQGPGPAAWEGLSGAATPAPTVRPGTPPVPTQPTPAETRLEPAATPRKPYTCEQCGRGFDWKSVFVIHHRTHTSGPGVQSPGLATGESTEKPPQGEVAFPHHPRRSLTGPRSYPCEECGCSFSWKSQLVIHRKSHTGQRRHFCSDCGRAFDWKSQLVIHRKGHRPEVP

Row | effect of a mutation on the interaction | Variant
25 | with no effect | R69C
26 | with no effect | N347Y
